The values that follow come from paper PMC2836565.

Substitutions are numbered along the chain they refer to.

The target of data set [1] is T1, Vts1 (Saccharomyces cerevisiae, UniProt Q08831 1-523).
T1 sequence: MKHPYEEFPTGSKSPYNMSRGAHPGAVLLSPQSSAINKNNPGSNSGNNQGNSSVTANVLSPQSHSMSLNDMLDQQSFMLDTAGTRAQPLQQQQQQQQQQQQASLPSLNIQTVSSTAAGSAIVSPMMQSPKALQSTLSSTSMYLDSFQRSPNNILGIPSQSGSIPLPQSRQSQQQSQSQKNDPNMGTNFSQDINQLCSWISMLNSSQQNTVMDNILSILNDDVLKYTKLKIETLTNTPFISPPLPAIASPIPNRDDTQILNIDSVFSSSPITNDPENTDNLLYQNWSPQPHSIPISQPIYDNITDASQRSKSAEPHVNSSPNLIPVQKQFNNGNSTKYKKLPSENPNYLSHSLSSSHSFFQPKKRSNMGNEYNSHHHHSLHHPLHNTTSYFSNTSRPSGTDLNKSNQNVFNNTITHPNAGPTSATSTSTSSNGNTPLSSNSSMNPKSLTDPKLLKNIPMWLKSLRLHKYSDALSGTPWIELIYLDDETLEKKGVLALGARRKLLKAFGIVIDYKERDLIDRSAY
In words: competition.

Data set [2] addresses T1, Vts1. In words: EMSA. Background: Mobility shift assays separate free from complexed probe on a gel.
The target of the next data set is T2, Vts1-A498Q (Saccharomyces cerevisiae, UniProt Q08831 1-523, A498Q).
T2 sequence: T1 sequence with A498Q
In words: EMSA.

B1: dsDNA 50-bp (dsDNA)
DNA 1: GAAAACATTATTAATGGCGTCGAGCTAGGCACAAGGCGAACTGCTAACGG
DNA 2: CCGTTAGCAGTTCGCCTTGTGCCTAGCTCGACGCCATTAATAATGTTTTC
Consider B1, for which the binding result with Vts1 [1] is recorded as “binds”.
As for GCUCGAGGCUCUGGCAGCCUCGAGC (structured_RNA) [SRE-RNA], the binding result with Vts1 [2] is reported as “binds”; in the data set with Vts1-A498Q, “no binding”.
